Reference: paper PMC2174254 (The Journal of Cell Biology, 1999)

Assays:
Assay in all cases: cross-linking
[1] = target: T1, PDI deletion mutant Δ252–277 (S. cerevisiae, UniProt P17967 29-522, Δ252–277, N-glycosylated (endoglycosidase H sensitive))
T1 sequence (looked up): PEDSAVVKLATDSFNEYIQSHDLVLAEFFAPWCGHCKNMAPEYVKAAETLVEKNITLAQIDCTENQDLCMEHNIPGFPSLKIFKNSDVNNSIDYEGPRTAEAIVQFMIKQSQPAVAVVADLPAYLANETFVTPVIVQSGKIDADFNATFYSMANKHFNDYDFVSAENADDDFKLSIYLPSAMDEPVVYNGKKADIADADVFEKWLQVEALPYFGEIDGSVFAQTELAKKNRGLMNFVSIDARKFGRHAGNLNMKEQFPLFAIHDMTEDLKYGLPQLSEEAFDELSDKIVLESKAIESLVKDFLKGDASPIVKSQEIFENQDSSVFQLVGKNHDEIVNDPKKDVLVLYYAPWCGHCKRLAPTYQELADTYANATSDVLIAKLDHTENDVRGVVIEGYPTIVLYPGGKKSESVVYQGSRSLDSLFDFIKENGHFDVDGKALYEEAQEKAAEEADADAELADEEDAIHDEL

[2] = target: T2, PDI deletion mutant Δ222–302 (S. cerevisiae, UniProt P17967 29-522, Δ222–302, N-glycosylated (endoglycosidase H sensitive))
T2 sequence (looked up): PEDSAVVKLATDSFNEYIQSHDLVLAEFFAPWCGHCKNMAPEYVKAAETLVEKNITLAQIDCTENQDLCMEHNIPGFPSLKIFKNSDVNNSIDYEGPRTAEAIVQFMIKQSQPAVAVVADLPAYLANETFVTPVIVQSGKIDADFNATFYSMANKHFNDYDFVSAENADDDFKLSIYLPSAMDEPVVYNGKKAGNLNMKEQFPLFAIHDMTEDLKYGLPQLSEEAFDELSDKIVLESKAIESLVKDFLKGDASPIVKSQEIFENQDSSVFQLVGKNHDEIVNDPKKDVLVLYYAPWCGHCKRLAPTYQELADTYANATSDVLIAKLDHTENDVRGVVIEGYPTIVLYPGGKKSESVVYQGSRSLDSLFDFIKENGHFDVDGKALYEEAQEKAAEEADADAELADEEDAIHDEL

[3] = target: T1, PDI deletion mutant Δ252–277; remark: listed apart in the source
[4] = target: T2, PDI deletion mutant Δ222–302; remark: listed apart in the source

B1: BiP, heavy chain binding protein (natural protein)
chain: not shown
fold reduction of affinity compared with wild-type PDI [1]: ~2.8 fold
BiP immunoprecipitated relative to wild-type PDI [2]: 2.7 fold
fold reduction of BiP coimmunoprecipitated with Δgpαf present against absent [3]: 1.3 fold
fold decrease of BiP coimmunoprecipitated with Δgpαf present against absent [4]: 4.7 fold
